Source: patent publication US10494415B2, “Insulin-like growth factor 2 (IGF2) binding agents” (Cancer Research Technology Limited, priority 2015, dated 2019)
Marks after values point to notes of the source that are not given here.

How the values were obtained:
[1] = test system: SKNMC-IGF2^1-67 xenografts; assay: IGF2 dependent human cancer cell xenografts; type: in vivo, mouse; details: for Xenograft growth: CD-1 nude mice, 40 mg kg-1 per week by osmotic mini-pump
Text: (§1) IGF2 sensitive autocrine cell line SKNMC-IGF2^67 was generated from the Ewing sarcoma cell line SKNMC by retroviral infection with constructs containing IRES-luciferase. Autocrine growth and signalling function of the SKNMC line, including inhibition by IGF2-TRAP, was confirmed in culture using an MTS reagent (Cell Titer 96 Aqueous One Solution cell proliferation assay, Promega). For xenografts, approximately 5×10^6 SKNMC-IGF2^67 cells harvested during the growth phase of sub-confluent cell cultures were then mixed with matrigel (50:50 v/v, 100 μl/mouse) and injected (sub-cutaneous) into CD-1® (Crl:NU-1 Foxn1nu) female mice, 24 hours after establishing ALZET® mini-pump placement delivering a single concentration 40 mg kg-1 per week either IGF2-TRAP or PBS vehicle control. Tumour growth was monitored with both caliper measurements and bioluminescence. The latter was performed with a Bruker Xtreme 2D optical system 15 minutes (10 second exposure) following luciferin injection (100 μl per 20 g body weight). Tumours were excised at 28 days or when size was >1000 mm3. Fixation in formalin, embedding in paraffin and Hematoxylin and Eosin (H&E) staining was done using standard protocols. Apoptotic area was quantified using automated image analysis of brightfield images in ImageJ, applying H AEC color deconvolution filter and automated thresholding. Serum was also collected at the time of culling.

IGF2 in human serum = assay: Neutral size fractionation of human serum before and after depletion with IGF2-TRAP beads, western blot
Experimental: FIG. 14 IGF2-TRAP modifies the molecular distribution of IGF2 in human serum. Normal (left) and NICTH (right) sera were fractionated in a gel filtration column at neutral pH, alongside a molecular weight calibration marker, before and after incubation and depletion with IGF2-TRAP-loaded protein G beads. Elution fractions were analysed by western blot.
Changes in the molecular distribution of circulating IGF2 upon IGF2-TRAP treatment were analysed by neutral size fractionation of human serum (FIG. 14). In adult human serum, western blots of the fractions reveal that IGF2 is mainly the mature lower molecular weight isoform, and is predominantly present in a ternary complex with IGFBP3 and the acid labile subunit (ALS) (˜150 kDa), and to a lesser extent in a binary complex with IGFBP3 (˜40 kDa), with free IGF2 below the limit of detection. […] Pull-downs confirmed that the depleted IGF2 specifically bound IGF2-TRAP. In a second experiment, serum from a patient with Non-Islet-Cell Tumour-associated Hypoglycaemia (NICTH) secondary to a GIST tumour was utilised.

IGF2^1-104 = molecular target: T1, IGF2^1-104 (Homo sapiens, UniProt P01344); assay: SPR of IGF forms on Fc-domain 11 proteins immobilised by antibody capture; type: binding; details: HBS-EP pH 7.4
T1 construct: pro-IGF2 (pro-IGF2^1-104 [11 kDa]
Experimental: (§2) SPR analysis of the interaction of recombinant IGF1 and IGF2 forms with Fc-domain 11 proteins immobilised by antibody capture (CM5 chip containing monoclonal mouse anti-human IgG antibody immobilised by amine coupling). Measurements were carried out at 25° C. in HBS-EP buffer (pH 7.4).
(§3) Final kinetic analysis of mutants by SPR was conducted using a Biacore T200 biosensor at 25° C. in either HBS-EP (10 mM HEPES pH 7.4, 150 mM NaCl, 3 mM EDTA, and 0.005% (v/v) surfactant P20) or MES-EP (20 mM MES pH 6.5, 150 mM NaCl, 3 mM EDTA, and 0.005% (v/v) surfactant P20) at a flow-rate of 40 μL min^−1. […] For the analysis of the Fc-domain 11^AB5 interaction, approximately 50 RU of a biotinylated IGF2:biotinylated ubiquitin mixture (1:8 proportion) was immobilized on the CM5-streptavidin chip. This interaction was also analysed by immobilizing the Fc-domain 11^AB5 and Fc-domain 11^AB5-RHH (or Fc-domain 11^I1572A as control) by Human Antibody Capture (monoclonal mouse anti-human IgG antibody immobilised on a CM5 chip by amine coupling, GE Healthcare) with and without human IgG1 Fc fragment (Bethyl Laboratories, UK) in the control flow cell. Increasing concentrations of IGF2^1-67, proIGF2^1-104, proIGF2^1-156 and IGF1 ranging from 0.125 to 32 nM were injected. T200 BiaEvaluation software (GE Healthcare) was used to fit the resulting curves according to a 1:1 binding model. Steady state affinities were determined using the kinetic data, taking the response average at 5 seconds before injection end and for 5 seconds average. Thermodynamic data was performed across the temperature range of 10° C. to 30° C., van't Hoff and Erying plots generated and ΔH, −TΔS and ΔG values determined as previously described.

IGF2^1-67 = molecular target: T2, IGF2^1-67 (Homo sapiens, UniProt P01344); assay: as above; type: binding; details: HBS-EP pH 7.4
T2 construct: Recombinant mature (IGF2^1-67 [7.5 kDa]
Experimental: as §2, §3

IGF2^1-156 = molecular target: T3, IGF2^1-156 (Homo sapiens, UniProt P01344); assay: as above; type: binding
T3 construct: pro-IGF2^1-156 [17 kDa]
Experimental: as §2, §3

SKNMC-IGF2^1-67 cells = assay: Growth/viability of IGF2-autocrine SKNMC cells in culture (MTS); type: cell-based, human
Text: as §1, with “Serum was also collected at the time of culling.” left out

Chain of IGF2 in human serum (P01344 25-91 limits assumed): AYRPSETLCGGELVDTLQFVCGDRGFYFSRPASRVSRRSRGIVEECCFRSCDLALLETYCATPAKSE
T2 sequence (P01344 25-91): as the sequence (P01344 25-91 limits assumed) above
T3 sequence (P01344 25-180): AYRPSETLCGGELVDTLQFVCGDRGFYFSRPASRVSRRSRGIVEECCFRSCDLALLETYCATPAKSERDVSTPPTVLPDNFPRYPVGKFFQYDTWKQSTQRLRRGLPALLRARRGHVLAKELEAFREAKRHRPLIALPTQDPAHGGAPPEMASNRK
T1 sequence (P01344 25-128): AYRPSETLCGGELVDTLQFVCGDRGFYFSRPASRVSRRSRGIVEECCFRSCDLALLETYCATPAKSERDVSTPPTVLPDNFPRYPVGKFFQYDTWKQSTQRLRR

B1: Fc-domain 11^AB5-RHH: Fc-fusion of domain 11^AB5-RHH (IGF2-TRAP); IgG2 Fc form purified from CHO cells used for xenografts (protein)
chain: NEHDDCQVTNPSTGHLFDLSSLSGRAGFTAAYAKGWGVYMSICGENENCPPGVGACFGRTRISVGKANKRLRYVDQVLQLVYKDGSHCPSKHGLSYKSVISFVCRPEAGPTNRPMLISLDKQTCTLFFSWHTPLACEQAT
modifications: left off: a dimerising Fc or GST
notes: Fc-fusion of domain 11^AB5-RHH (IGF2-TRAP); IgG2 Fc form purified from CHO cells used for xenografts
[1]; listed as Fc-domain 11AB5-RHH
  Xenograft growth: Reduced xenograft growth rates
[1]; listed as IGF2-TRAP
  Xenograft growth: reduces IGF2 dependent xenograft growth
[1]; Day 28
  Total serum IGF1, Growth Hormone or IGFBP levels: without alteration
[1]; Day 28, listed as Fc-domain 11AB5-RHH
  Serum IGF2: less evident
[1]; Day 28, listed as IGF2-TRAP
  Serum IGF2: reduced levels of serum IGF2
IGF2 in human serum; NICTH patient serum
  IGF2 distribution in serum after IGF2-TRAP depletion: depleted both lower and higher molecular weight isoforms of IGF2
IGF2 in human serum; normal adult human serum
  IGF2 distribution in serum after IGF2-TRAP depletion: depleted IGF2 in the binary complex
IGF2^1-104
  Kinetics koff: 0.0005 s⁻¹
  Kinetics kon: 1.29e+06 M⁻¹ s⁻¹
IGF2^1-67
  Kinetics koff: 0.0014 s⁻¹
  Kinetics kon: 2.6e+06 M⁻¹ s⁻¹
IGF2^1-156; HBS-EP pH 7.4
  Kinetics koff: 0.0003 s⁻¹
IGF2^1-156; may be inaccurate (mixture of three isoforms)
  Kinetics kon: 0.23* ×10^6 M^−1s^−1
SKNMC-IGF2^1-67 cells; listed as Fc-domain 11AB5-RHH
  Growth of SKNMC cells expressing constitutive IGF2^1-67 in culture: inhibited
SKNMC-IGF2^1-67 cells; listed as IGF2-TRAP
  Growth of SKNMC cells expressing constitutive IGF2^1-67 in culture: decreases the cell viability
